Patent US6429304B1, “Nucleic acids encoding a katanin p60 subunit” (The Regents of the University of California, priority 1998, dated 2002)

Test system: MSU1.1 human fibroblasts
Assay: Centrosome targeting of GFP fusion after transient transfection
Type: cell-based
Conditions: 2-4 hr after transfection
Description: To allow transient expression of a human p80 WD40-GFP fusion protein in HeLa cells, a DNA fragment containing amino acids 1-263 of human p80 katanin was generated by PCR amplification, placing a BamHI site and a Kozak consensus at the predicted translation start and an EcoRI site after the codon for a.a. 263. This BamHI-EcoRI fragment was ligated into the GFP fusion vector pEGFP-N1 (Clontech).
Both MSU1.1 and HeLa cells were grown on 18 mm glass coverslips in Optimem medium (Life Technologies) supplemented with 10% fetal bovine serum, penicillin and streptomycin. Plasmids were transfected using Superfect Reagent (Qiagen) for 2 hr after which coverslips were washed with PBS and placed in fresh culture medium at 37° C. with 5% CO2 for 1-24 hr.
For imaging of GFP-fluorescence and immunofluorescence with the human p80 katanin antibody or with the γ-tubulin antibody, monoclonal GTU88 (Sigma Chemical), cells on coverslips were fixed either in −20° C. methanol or in 0.5×PBS, 3.7% formaldehyde, 75% methanol at 22° C. for 10 min followed by rehydration in TBST. Antibody labelling was carried out in TBST containing 4% BSA. Images were captured with a Nikon Microphot SA microscope, 100×Plan Fluor 1.3 objective, Photometrics Quantix camera and IP Lab Spectrum software (Scanalytics).

B1: p80 WD40-GFP: fusion of the six WD40 repeats of human p80 katanin (a.a. 1-263) to the N-terminus of green fluorescent protein (protein)
chain: MATPVVTKTAWKLQEIVAHASNVSSLVLGKASGRLLATGGDDCRVNLWSINKPNCIMSLTGHTSPVESVRLNTPEELIVAGSQSGSIRVWDLEAAKILRTLMGHKANICSLDFHPYGEFVASGSQDTNIKLWDIRRKGCVFRYRGHSQAVRCLRFSPDGKWLASAADDHTVKLWDLTAGKMMSEFPGHTGPVNVVEFHPNEYLLASGSSDRTIRFWDLEKFQVVSCIEGEPGPVRSVLFNPDGCCLYSGCQDSLRVYGWEPER
modifications: left off: large carriers
notes: fusion of the six WD40 repeats of human p80 katanin (a.a. 1-263) to the N-terminus of green fluorescent protein
  localization of GFP fluorescence: co-localized with γ-tubulin staining
